Here are results for 37 molecules from US5972599, “High affinity nucleic acid ligands of cytokines” (NeXstar Pharmaceuticals, Inc.).

The term Kd denotes a measure of binding affinity in units of concentration. Read a low Kd as tighter binding.

B1: TNF 19C (ssRNA)
RNA: GGGAGCUCAGAAUAAACGCUCAAUGUCGAUCGUGUCAAGGUCCGUCCUACUUCUUCGACAUGAGGCCCGGAUCCGGC
B2: TNF 9C (ssRNA)
RNA: GGGAGCUCAGAAUAAACGCUCAAAUGGUGGAGGCCAUCUCAAACCCACGACACUUCGACAUGAGGCCCGGAUCCGGC
B3: IL-10 ligand 59 (ssRNA)
RNA: GGGAGACAAGAAUAAACGCUCAACGUAAAAGUUAUCGAAUCUCUGUGAGCCUGGAUCGAUUACUUCGACAGGAGGCUCACAACAGGC
modifications: 2'-F C and U
B4: IL-10 ligand 64 (ssRNA)
RNA: GGGAGACAAGAAUAAACGCUCAAACAUCGUAUAACUCUAAGCGCCUGGAUAUACGAUGAAUUCGACAGGAGGCUCACAACAGGC
modifications: 2'-F C and U
B5: IL-10 ligand 64b (ssRNA)
RNA: GGGAGACAAGAAUAAACGCUCAAACAUCGUAUAACUCUAAGUGCCUGGAUAUACGAUGAAUUCGACAGGAGGCUCACAACAGGC
modifications: 2'-F C and U
B6: IL-10 ligand 64a (ssRNA)
RNA: GGGAGACAAGAAUAAACGCUCAAACAUCGUAUAACUCUAAGAGCCUGGAUAUACGAUGAAUUCGACAGGAGGCUCACAACAGGC
modifications: 2'-F C and U
B7: IL-10 ligand 54 (ssRNA)
RNA: GGGAGACAAGAAUAAACGCUCAAAUCCCAAUCUCUAAGAGCCUGGAUGACAAUCGCAUUGGGCUUCGACAGGAGGCUCACAACAGGC
modifications: 2'-F C and U
B8: IL-10 ligand 15 (ssRNA)
RNA: GGGAGACAAGAAUAAACGCUCAAUCUCUAUGAGCCUGGAUCGACGAACUCUCUACGGGCUGUGUUCGACAGGAGGCUCACAACAGGC
modifications: 2'-F C and U
B9: IL-10 ligand 34 (ssRNA)
RNA: GGGAGACAAGAAUAAACGCUCAACUGAGAUCUCUAAGAGCCUGGACUCAGCUCCGAUUGAUCCUUCGACAGGAGGCUCACAACAGGC
modifications: 2'-F C and U
B10: IL-10 ligand 41 (ssRNA)
RNA: GGGAGACAAGAAUAAACGCUCAACUGAGAUCUCUAAGAGCCUGGACUCAGCUCCGAUUGAACCUUCGACAGGAGGCUCACAACAGGC
modifications: 2'-F C and U
B11: IL-10 ligand 10 (ssRNA)
RNA: GGGAGACAAGAAUAAACGCUCAACUGAGAUCUCUAAGAGCCUGGACUCAGCUCCGACUGACCUUCGACAGGAGGCUCACAACAGGC
modifications: 2'-F C and U
B12: IL-10 ligand 3 (ssRNA)
RNA: GGGAGACAAGAAUAAACGCUCAACUGAGAUCUCUAAGAGCCUGGACUCAGCUACGAUUGAGCGUUUAUUCUUGUUCGACAGGAGGCUCACAACAGGC
modifications: 2'-F C and U
B13: IL-10 ligand 2 (ssRNA)
RNA: GGGAGACAAGAAUAAACGCUCAAAUCUCUACUGAGCCUGGAUUCGCCAGAAGUUUUAUCACAGUUUCGACAGGAGGCUCACAACAGGC
modifications: 2'-F C and U
B14: IL-10 ligand 56 (ssRNA)
RNA: GGGAGACAAGAAUAAACGCUCAAUCUCUAAGAGCCUGGAUGUCGAGGGGCCAUUUCGCACGCUUCGACAGGAGGCUCACAACAGGC
modifications: 2'-F C and U
B15: IL-10 ligand 55 (ssRNA)
RNA: GGGAGACAAGAAUAAACGCUCAAACAUCGUAUAAUCUCUAAGAGCCUGGAUAUACGAUGAAUUCGACAGGAGGCUCACAACAGGC
modifications: 2'-F C and U
B16: IL-10 ligand 68 (ssRNA)
RNA: GGGAGACAAGAAUAAACGCUCAAACAUCGUAUAAUCUCUCUAAGAGCCUGGAAUACGAUGAAUUCGACAGGAGGCUCACAACAGGC
modifications: 2'-F C and U
B17: IL-10 ligand 6 (ssRNA)
RNA: GGGAGACAAGAAUAAACGCUCAAAUCCCAAUCUCUAAGAGCCUGGAUAAGAAUGCGCAUUGGGCUUCGACAGGAGGCUCACAACAGGC
modifications: 2'-F C and U
B18: IL-10 ligand 57 (ssRNA)
RNA: GGGAGACAAGAAUAAACGCUCAAAUCCCAAUCUCUAAGAGCCUGGAUGAGAAUGCGCAUUGGGCUUCGACAGGAGGCUCACAACAGGC
modifications: 2'-F C and U
B19: IL-4 2'NH2-27 (ssRNA)
RNA: GGGAGACAAGAAUAAACGCUCAACCUUGUGGGGAGCCACGUAUACGGCCAUAGCAUACCGCAAUUCGACAGGAGGCUCACAACAGGC
modifications: 2'-NH2 C and U
B20: IL-4 2'NH2-12 (ssRNA)
RNA: GGGAGACAAGAAUAAACGCUCAAGGACUGGUGAGCCACGUAUACGGUCUUAGGGGCUUGGGCGUUCGACAGGAGGCUCACAACAGGC
modifications: 2'-NH2 C and U
B21: IL-4 2'NH2-31 (ssRNA)
RNA: GGGAGACAAGAAUAAACGCUCAAGUGCUGGUGAGCCACGCAUACGGUCUUAGGGGCUUGAGCGUUCGACAGGAGGCUCACAACAGGC
modifications: 2'-NH2 C and U
B22: IL-4 2'NH2-B31 (ssRNA)
RNA: GGGAGACAAGAAUAAACGCUCAAGAGCUGGUGAGCCACGUAUACGGUCUUAGGGGCUUGGGCGUUCGACAGGAGGCUCACAACAGGC
modifications: 2'-NH2 C and U
B23: IL-4 2'F/NH2-19 (ssRNA)
RNA: GGGAGACAAGAAUAAACGCUCAAGUCUUCCAUGGGGAGCCACAUUAACGGCGCAAUACUGAACUUCGACAGGAGGCUCACAACAGGC
modifications: 2'-F C, 2'-NH2 U
B24: IL-4 2'NH2-B5 (ssRNA)
RNA: GGGAGACAAGAAUAAACGCUCAACGAUAGUAUACACAUGAUGAUGGGGAGCCACGUGUACGGCUUCGACAGGAGGCUCACAACAGGC
modifications: 2'-NH2 C and U
B25: IL-4 2'NH2-B14 (ssRNA)
RNA: GGGAGACAAGAAUAAACGCUCAAUAAAUGGAGAGCCACACUAACGGCGUAUGAAAACACUCAUUCGACAGGAGGCUCACAACAGGC
modifications: 2'-NH2 C and U
B26: IL-4 2'NH2-17 (ssRNA)
RNA: GGGAGACAAGAAUAAACGCUCAAGUAUUGGGGAGCCACAUUACAACGGCACAGGCAACCAGGGUUCGACAGGAGGCUCACAACAGGC
modifications: 2'-NH2 C and U
B27: IL-4 2'NH2-22 (ssRNA)
RNA: GGGAGACAAGAAUAAACGCUCAACAGAUGGUAUCUAGUGGAGAGCCACAUCAACGGCGCAGAUUCGACAGGAGGCUCACAACAGGC
modifications: 2'-NH2 C and U
B28: IL-4 2'F/NH2-25 (ssRNA)
RNA: GGGAGACAAGAAUAAACGCUCAAAGAGCCGUUUUGGGGACCCACAGUAACGGGUUUAUGGUAUUCGACAGGAGGCUCACAACAGGC
modifications: 2'-F C, 2'-NH2 U
B29: IL-4 2'F/NH2-41 (ssRNA)
RNA: GGGAGACAAGAAUAAACGCUCAAAGUAACGUGGGGAGCCACACGUAAUACGGCACUAAUUCGACAGGAGGCUCACAACAGGC
modifications: 2'-F C, 2'-NH2 U
B30: IL-4 2'NH2-B29 (ssRNA)
RNA: GGGAGACAAGAAUAAACGCUCAAUGACUGAACGAUGGUAUUGGAGAGCCACAUCAACGGCAAUUUCGACAGGAGGCUCACAACAGGC
modifications: 2'-NH2 C and U
B31: IL-4 2'F/NH2-8 (ssRNA)
RNA: GGGAGACAAGAAUAAACGCUCAAGUCGGAGCGAUGGAGAGCCACGAUAUACGGUCUGUGCGCUUCGACAGGAGGCUCACAACAGGC
modifications: 2'-F C, 2'-NH2 U
B32: IL-4 2'NH2-B24 (ssRNA)
RNA: GGGAGACAAGAAUAAACGCUCAAAGAUUUAAAGUAUUUGGGGAGCCACAUCAACGGCAUUGUGUUCGACAGGAGGCUCACAACAGGC
modifications: 2'-NH2 C and U
B33: IL-4 2'F/NH2-13 (ssRNA)
RNA: GGGAGACAAGAAUAAACGCUCAACUCGGGAGCCAGAGUAACAACGGCACUAUAUAAUUUUACUUCGACAGGAGGCUCACAACAGGC
modifications: 2'-F C, 2'-NH2 U
B34: IL-4 2'NH2-B16 (ssRNA)
RNA: GGGAGACAAGAAUAAACGCUCAAUCACAAGCACCCUUGGGGAGCCACAUUAACGGCCUAGGCUUCGACAGGAGGCUCACAACAGGC
modifications: 2'-NH2 C and U
B35: IL-4 2'NH2-B26 (ssRNA)
RNA: GGGAGACAAGAAUAAACGCUCAAAUGGAGAGCCACAUUAACGGCAGCAUAUCACAGUAGGAAUUCGACAGGAGGCUCACAACAGGC
modifications: 2'-NH2 C and U
B36: IL-4 2'NH2-B8 (ssRNA)
RNA: GGGAGACAAGAAUAAACGCUCAAUGUGGGGAGCCACAGUUAACGGCUUCAACUGAUUAGAAUUCGACAGGAGGCUCACAACAGGC
modifications: 2'-NH2 C and U
B37: IL-4 2'NH2-B18 (ssRNA)
RNA: GGGAGACAAGAAUAAACGCUCAACGAUGGAGCGCCACAUCGCUAUAACGGCAUUUAACAAAAUUUCGACAGGAGGCUCACAACAGGC
modifications: 2'-NH2 C and U

In one data set the target is TNF-alpha (Homo sapiens, UniProt P01375 P01375:77-233). Kind of data set: filter; class I. Particulars: tags: Genzyme or R&D Systems; chain copies: 3 inferred.
Sequence of TNF-alpha (P01375 77-233, one chain of several): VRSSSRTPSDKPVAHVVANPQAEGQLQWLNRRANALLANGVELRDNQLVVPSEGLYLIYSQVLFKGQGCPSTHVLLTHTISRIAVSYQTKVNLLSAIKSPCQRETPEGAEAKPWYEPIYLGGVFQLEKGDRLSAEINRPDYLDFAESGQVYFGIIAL
As for B1, the Kd worked out at 83 nM.
Still for that read-out and setting: then B2, with 120 nM.

The next data set deals with IL-10 (Homo sapiens, UniProt P22301 P22301:19-178). Kind of data set: filter; group statement, at 250 nM IL-10. Particulars: tags: Bachem or R&D Systems; chain copies: 2.
Sequence of IL-10 (P22301 19-178, one chain of several): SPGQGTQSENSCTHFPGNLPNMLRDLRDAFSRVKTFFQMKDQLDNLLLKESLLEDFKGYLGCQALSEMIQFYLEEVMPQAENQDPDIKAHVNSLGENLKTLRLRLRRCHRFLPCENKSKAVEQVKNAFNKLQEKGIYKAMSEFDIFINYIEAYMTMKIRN
Take B3: the binding result was “binds”.
On the same count and under the same terms, then B4, with “binds”; and B5, with “binds”; and B6, with “binds”.
B7: the binding result was “binds”.
Same read-out and setting: then B8, with “binds”; and B9, with “binds”.
Turning to B10, the binding result was “binds”.
On the same count and under the same terms, then B11, with “binds”.
B12: the binding result is given as “binds”.
Regarding B13, the binding result is listed as “binds”.
The same measure, in the same setting: to B14 belongs “binds”; to B15, “binds”; to B16, “binds”.
Still for that read-out and setting: then B17, with “binds”; and B18, with “binds”.

For a further data set, the target named is IL-4 (Homo sapiens, UniProt P05112 P05112:25-153). In words: filter; group 1 stated to bind IL-4. Particulars: tags: R&D Systems.
Sequence of IL-4 (P05112 25-153, one chain of several): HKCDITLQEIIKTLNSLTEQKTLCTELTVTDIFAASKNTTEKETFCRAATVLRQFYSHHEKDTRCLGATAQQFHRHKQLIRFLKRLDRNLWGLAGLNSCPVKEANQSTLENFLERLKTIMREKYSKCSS
Turning to B19, the binding result is reported as “binds”.
The same measure, in the same setting: to B20 belongs “binds”.
B21: the binding result was “binds”.
B22: the binding result was “binds”.
On the same count and under the same terms, to B23 belongs “binds”; to B24, “binds”; to B25, “binds”.
Still for that read-out and setting: then B26, with “binds”.
On to B27, for which the binding result is recorded as “binds”.
Still for that read-out and setting: then B28, with “binds”.
B29: the binding result was “binds”.
On to B30, for which the binding result is on record as “binds”.
The same measure, in the same setting: then B31, with “binds”; and B32, with “binds”; and B33, with “binds”.
B34: the binding result was “binds”.
Consider B35, for which the binding result is given as “binds”.
On the same count and under the same terms, then B36, with “binds”; and B37, with “binds”.
